How the values were obtained:
Assay in all cases: TAL and PAL enzyme kinetics
[1] = system: N[C@@H](Cc1ccc(O)cc1)C(=O)O; type: biochemical, Sorghum bicolor; settings: other: TAL assay (L-Tyr), pH 8.5, 30° C.
Method: (§1) All substrate solutions were prepared with 0.01 N NaOH to increase the solubility of L-Tyr. A mixture containing 100 mM Tris-HCl (pH 8.5), 1% glycerol, and purified enzyme in a total volume of 50 μl was preincubated for 3 min at 30° C. PAL and TAL reactions were started by addition of 50 μl of 1 mM substrate (L-Phe or L-Tyr, respectively) and were incubated at 30° C. for 20 min unless otherwise noted. The reactions were terminated by addition of 6N acetic acid (10 μl).
(§2) The kinetic parameters of the recombinant enzymes were determined using HPLC. Reaction mixtures containing 100 mM Tris-HCl (pH 8.5), 1% glycerol, and purified enzyme (0.15 μg for PAL assay and 1 μg for TAL assay) in a 50 μl total volume were preincubated for 3 min at 30° C. PAL and TAL reactions were started by addition of 50 μl substrate solution prepared with 0-4 mM L-Phe and 0-2 mM L-Tyr. After 10 min and 20 min incubations for PAL and TAL assay, respectively, at 30° C., the reaction was terminated by addition of 6N acetic acid (10 μl). […] The products were quantified using calibration curves generated using authentic standards. Non-linear hyperbolic regression analyses were conducted using the Excel Solver tool to calculate Km and Vmax values.

N[C@@H](Cc1ccccc1)C(=O)O [2] = type: biochemical, Sorghum bicolor; settings: other: PAL assay (L-Phe), pH 8.5, 30° C.
Method: as §1, §2

N[C@@H](Cc1ccccc1)C(=O)O [3] = type: biochemical, Arabidopsis thaliana; settings: other: PAL assay (L-Phe), pH 8.5, 30° C.
Method: (§3) A mixture containing 100 mM Tris-HCl (pH 8.5), 1% glycerol, and purified enzyme in a total volume of 50 μl was preincubated for 3 min at 30° C. […] The reactions were terminated by addition of 6N acetic acid (10 μl).
(§4) The kinetic parameters of the recombinant enzymes were determined using HPLC. Reaction mixtures containing 100 mM Tris-HCl (pH 8.5), 1% glycerol, and purified enzyme (0.15 μg for PAL assay and 1 μg for TAL assay) in a 50 μl total volume were preincubated for 3 min at 30° C. […] After 10 min and 20 min incubations for PAL and TAL assay, respectively, at 30° C., the reaction was terminated by addition of 6N acetic acid (10 μl). […] The products were quantified using calibration curves generated using authentic standards. Non-linear hyperbolic regression analyses were conducted using the Excel Solver tool to calculate Km and Vmax values.
N[C@@H](Cc1ccccc1)C(=O)O [4] = type: biochemical, Sorghum bicolor; settings: other: PAL assay (L-Phe), pH 8.5, 30° C.; remark: listed apart in the source
Method: as §4

[5] = system: N[C@@H](Cc1ccc(O)cc1)C(=O)O; type: biochemical, Brachypodium distachyon; settings: other: TAL assay (L-Tyr), pH 8.5, 30° C.
Method: as §1, §2

N[C@@H](Cc1ccccc1)C(=O)O [6] = type: biochemical, Brachypodium distachyon; settings: other: PAL assay (L-Phe), pH 8.5, 30° C.
Method: as §1, §2

N[C@@H](Cc1ccccc1)C(=O)O [7] = type: biochemical, Brachypodium distachyon; settings: other: PAL assay (L-Phe), pH 8.5, 30° C.; remark: listed apart in the source
Method: as §4

[8] = system: N[C@@H](Cc1ccc(O)cc1)C(=O)O; type: biochemical, Arabidopsis thaliana; settings: other: TAL assay (L-Tyr), pH 8.5, 30° C.
Method: as §3, §4

Chain of Arabidopsis thaliana AtPAL1 variant S114I (as printed in Table 3; AtPAL1^S116I, SEQ ID NO: 260, elsewhere) (Arabidopsis thaliana; S116I) (chain, as listed by the source S114I S116I S116I): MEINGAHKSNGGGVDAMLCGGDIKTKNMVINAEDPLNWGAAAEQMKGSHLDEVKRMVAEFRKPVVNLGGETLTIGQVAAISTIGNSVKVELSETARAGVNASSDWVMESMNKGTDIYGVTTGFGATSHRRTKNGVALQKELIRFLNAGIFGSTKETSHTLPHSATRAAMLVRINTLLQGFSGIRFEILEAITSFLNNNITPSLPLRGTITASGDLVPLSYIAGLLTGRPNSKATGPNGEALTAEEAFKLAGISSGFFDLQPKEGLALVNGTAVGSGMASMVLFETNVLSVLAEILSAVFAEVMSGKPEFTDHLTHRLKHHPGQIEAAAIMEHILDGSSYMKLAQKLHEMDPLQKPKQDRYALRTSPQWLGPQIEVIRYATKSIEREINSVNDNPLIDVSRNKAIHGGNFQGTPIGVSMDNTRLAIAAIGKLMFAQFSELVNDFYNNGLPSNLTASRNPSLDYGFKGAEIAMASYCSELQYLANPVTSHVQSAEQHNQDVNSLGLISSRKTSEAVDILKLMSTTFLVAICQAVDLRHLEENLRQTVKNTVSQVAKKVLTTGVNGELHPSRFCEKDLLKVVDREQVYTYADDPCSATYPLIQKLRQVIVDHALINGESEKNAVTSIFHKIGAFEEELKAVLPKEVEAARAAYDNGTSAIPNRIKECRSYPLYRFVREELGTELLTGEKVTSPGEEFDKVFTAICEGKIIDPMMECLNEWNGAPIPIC
Chain of Brachypodium distachyon BdPTAL variant H123F (BdPTAL^H123F) (Brachypodium distachyon; H123F) (chain, as listed by the source H123F H123F H123F): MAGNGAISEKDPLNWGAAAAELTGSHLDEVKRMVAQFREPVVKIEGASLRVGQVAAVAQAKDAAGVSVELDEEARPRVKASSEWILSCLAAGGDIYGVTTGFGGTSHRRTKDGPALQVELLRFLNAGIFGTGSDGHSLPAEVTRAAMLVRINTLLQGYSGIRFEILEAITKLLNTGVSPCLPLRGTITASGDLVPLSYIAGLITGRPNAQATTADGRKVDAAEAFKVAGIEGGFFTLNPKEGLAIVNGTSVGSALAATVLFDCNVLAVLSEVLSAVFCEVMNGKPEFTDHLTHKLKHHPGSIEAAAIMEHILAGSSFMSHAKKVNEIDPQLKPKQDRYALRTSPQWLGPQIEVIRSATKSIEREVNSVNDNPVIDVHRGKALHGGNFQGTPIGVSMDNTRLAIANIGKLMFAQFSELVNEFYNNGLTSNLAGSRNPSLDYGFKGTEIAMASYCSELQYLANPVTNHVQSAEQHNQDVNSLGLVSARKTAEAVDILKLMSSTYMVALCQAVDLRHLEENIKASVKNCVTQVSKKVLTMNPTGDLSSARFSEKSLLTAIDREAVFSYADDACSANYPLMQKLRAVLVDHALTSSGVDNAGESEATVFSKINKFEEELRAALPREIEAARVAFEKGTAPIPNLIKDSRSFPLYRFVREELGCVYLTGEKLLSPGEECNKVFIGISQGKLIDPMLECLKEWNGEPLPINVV
Chain of Arabidopsis thaliana AtPAL1, wild type, SEQ ID NO: 144 (Arabidopsis thaliana) (chain, as listed by the source): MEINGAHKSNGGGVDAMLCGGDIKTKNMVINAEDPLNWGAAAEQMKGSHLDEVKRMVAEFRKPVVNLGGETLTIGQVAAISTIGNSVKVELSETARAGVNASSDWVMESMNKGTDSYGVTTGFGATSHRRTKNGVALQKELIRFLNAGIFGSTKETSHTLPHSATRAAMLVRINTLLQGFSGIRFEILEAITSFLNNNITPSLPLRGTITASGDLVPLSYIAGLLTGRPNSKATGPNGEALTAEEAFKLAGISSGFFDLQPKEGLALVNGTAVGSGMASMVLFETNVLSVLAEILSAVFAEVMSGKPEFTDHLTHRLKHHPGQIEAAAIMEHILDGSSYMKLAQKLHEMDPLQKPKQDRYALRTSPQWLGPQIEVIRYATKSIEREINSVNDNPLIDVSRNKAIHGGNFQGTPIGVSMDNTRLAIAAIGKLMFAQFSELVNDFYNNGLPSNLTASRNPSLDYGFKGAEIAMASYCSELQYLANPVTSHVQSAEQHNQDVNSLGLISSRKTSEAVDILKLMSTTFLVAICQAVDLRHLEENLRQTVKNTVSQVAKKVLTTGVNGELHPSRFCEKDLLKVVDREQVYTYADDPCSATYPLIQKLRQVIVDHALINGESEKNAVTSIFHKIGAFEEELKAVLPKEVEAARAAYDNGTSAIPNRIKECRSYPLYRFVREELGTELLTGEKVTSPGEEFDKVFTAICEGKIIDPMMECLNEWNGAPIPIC
Chain of Arabidopsis thaliana AtPAL1 variant F144H (AtPAL1^F144H), SEQ ID NO: 261 (Arabidopsis thaliana; F144H) (chain, as listed by the source F144H F144H F144H): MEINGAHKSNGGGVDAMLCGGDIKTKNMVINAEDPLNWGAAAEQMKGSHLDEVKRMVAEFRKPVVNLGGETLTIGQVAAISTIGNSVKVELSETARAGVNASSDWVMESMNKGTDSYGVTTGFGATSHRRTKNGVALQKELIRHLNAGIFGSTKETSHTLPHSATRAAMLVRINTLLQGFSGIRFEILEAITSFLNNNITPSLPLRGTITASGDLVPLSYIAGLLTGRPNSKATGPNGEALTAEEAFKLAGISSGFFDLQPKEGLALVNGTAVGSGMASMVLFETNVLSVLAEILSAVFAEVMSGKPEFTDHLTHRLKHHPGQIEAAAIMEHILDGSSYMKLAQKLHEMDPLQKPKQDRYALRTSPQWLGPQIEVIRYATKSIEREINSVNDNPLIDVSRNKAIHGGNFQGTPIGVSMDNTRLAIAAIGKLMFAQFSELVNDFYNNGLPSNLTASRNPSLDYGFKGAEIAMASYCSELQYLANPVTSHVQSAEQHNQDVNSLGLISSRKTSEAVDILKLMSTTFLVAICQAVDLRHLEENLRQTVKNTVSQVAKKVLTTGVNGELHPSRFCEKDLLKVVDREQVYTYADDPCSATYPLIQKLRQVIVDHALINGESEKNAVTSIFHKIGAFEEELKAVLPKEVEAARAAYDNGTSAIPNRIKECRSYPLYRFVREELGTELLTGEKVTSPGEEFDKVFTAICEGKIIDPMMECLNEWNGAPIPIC
Chain of Brachypodium distachyon BdPTAL, wild type (Brachypodium distachyon) (chain, as listed by the source): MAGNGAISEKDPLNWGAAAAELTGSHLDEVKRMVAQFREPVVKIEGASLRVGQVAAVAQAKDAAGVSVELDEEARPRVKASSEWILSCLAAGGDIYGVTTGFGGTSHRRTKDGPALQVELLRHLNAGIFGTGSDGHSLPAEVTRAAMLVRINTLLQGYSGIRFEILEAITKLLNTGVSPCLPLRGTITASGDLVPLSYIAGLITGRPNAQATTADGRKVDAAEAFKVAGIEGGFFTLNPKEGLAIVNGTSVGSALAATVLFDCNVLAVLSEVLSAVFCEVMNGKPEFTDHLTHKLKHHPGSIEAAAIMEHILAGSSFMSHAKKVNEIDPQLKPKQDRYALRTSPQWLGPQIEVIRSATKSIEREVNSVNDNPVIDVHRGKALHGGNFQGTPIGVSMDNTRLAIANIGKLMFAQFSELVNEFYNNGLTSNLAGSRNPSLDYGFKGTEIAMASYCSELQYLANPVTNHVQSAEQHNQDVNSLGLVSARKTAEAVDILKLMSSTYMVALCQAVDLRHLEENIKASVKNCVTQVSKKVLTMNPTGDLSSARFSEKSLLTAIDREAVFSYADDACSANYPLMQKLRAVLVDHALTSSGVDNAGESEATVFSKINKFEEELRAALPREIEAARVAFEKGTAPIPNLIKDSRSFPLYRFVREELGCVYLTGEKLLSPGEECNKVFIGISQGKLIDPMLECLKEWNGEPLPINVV
Chain of Arabidopsis thaliana AtPAL1 variant F144H/S114I (as printed in Table 3; AtPAL1^F144H_S116I, SEQ ID NO: 146, elsewhere) (Arabidopsis thaliana; F144H/S116I) (chain, as listed by the source F144H S114I F144H S116I F144H S116I): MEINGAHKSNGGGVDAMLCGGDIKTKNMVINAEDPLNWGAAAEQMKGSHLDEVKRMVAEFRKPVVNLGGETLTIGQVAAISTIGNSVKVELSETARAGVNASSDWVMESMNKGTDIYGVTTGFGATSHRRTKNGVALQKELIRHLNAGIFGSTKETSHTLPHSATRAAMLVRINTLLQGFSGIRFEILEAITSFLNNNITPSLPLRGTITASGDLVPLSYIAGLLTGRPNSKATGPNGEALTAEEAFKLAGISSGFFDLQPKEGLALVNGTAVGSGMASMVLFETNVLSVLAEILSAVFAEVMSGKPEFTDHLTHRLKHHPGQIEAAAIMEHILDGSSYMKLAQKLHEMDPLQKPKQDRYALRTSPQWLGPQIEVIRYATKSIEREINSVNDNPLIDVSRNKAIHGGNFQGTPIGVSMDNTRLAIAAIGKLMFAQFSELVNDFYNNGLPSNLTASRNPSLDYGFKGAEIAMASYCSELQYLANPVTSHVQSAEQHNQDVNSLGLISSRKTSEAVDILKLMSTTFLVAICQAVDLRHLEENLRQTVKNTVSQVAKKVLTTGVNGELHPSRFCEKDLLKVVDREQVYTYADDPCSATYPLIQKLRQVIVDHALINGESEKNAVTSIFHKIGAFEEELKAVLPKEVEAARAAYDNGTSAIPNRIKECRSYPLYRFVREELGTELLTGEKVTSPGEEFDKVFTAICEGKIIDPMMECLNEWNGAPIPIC
Chain of Sorghum bicolor SbPTAL variant H123F (SbPTAL^H123F) (Sorghum bicolor; H123F) (chain, as listed by the source H123F H123F H123F): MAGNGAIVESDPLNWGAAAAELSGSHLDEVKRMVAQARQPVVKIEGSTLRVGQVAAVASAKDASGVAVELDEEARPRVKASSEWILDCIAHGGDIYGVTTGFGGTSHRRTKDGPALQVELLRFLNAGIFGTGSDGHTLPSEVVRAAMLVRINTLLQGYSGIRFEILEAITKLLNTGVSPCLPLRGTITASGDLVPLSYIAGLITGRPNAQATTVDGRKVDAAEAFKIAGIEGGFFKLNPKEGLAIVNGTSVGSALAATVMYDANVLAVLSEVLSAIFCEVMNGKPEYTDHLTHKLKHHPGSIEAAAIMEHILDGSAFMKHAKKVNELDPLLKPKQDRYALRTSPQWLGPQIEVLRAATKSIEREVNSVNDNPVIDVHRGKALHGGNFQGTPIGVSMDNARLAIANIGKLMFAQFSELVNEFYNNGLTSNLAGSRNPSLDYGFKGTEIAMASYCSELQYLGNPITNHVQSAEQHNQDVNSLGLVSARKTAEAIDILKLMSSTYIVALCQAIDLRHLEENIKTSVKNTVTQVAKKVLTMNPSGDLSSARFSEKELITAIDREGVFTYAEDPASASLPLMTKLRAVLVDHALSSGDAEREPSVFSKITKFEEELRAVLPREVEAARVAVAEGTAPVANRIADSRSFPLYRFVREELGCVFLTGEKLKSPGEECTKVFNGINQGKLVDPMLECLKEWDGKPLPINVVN

Sorghum bicolor SbPTAL variant H123F (SbPTAL^H123F) (Sorghum bicolor; H123F)
Km [1]: 750.7 ± 36.8 µM | kcat [1]: 0.03 ± 0.00 s⁻¹ | kcat/Km [1]: 40 ± 0 M⁻¹ s⁻¹ | Km (N[C@@H](Cc1ccccc1)C(=O)O [2]): 3.8 ± 2.0 µM | kcat (N[C@@H](Cc1ccccc1)C(=O)O [2]): 0.10 ± 0.00 s⁻¹ | kcat/Km (N[C@@H](Cc1ccccc1)C(=O)O [2]): 30970 ± 13700 M⁻¹ s⁻¹

Arabidopsis thaliana AtPAL1 variant F144H (AtPAL1^F144H), SEQ ID NO: 261 (Arabidopsis thaliana; F144H)
Km (N[C@@H](Cc1ccccc1)C(=O)O [3]): 1198.9 ± 21.1 µM | kcat (N[C@@H](Cc1ccccc1)C(=O)O [3]): 1.58 ± 0.04 s⁻¹ | kcat/Km (N[C@@H](Cc1ccccc1)C(=O)O [3]): 1320 ± 20 M⁻¹ s⁻¹

Arabidopsis thaliana AtPAL1 variant F144H/S114I (as printed in Table 3; AtPAL1^F144H_S116I, SEQ ID NO: 146, elsewhere) (Arabidopsis thaliana; F144H/S116I)
Km (N[C@@H](Cc1ccccc1)C(=O)O [3]): 87.3 ± 2.9 µM | kcat (N[C@@H](Cc1ccccc1)C(=O)O [3]): 0.88 ± 0.01 s⁻¹ | kcat/Km (N[C@@H](Cc1ccccc1)C(=O)O [3]): 10070 ± 440 M⁻¹ s⁻¹

Sorghum bicolor SbPTAL, wild type (Sorghum bicolor)
Km (N[C@@H](Cc1ccccc1)C(=O)O [4]): 150.1 ± 14.4 µM | kcat (N[C@@H](Cc1ccccc1)C(=O)O [4]): 0.69 ± 0.01 s⁻¹ | kcat/Km (N[C@@H](Cc1ccccc1)C(=O)O [4]): 4630 ± 490 M⁻¹ s⁻¹

Brachypodium distachyon BdPTAL variant H123F (BdPTAL^H123F) (Brachypodium distachyon; H123F)
Km [5]: 765.2 ± 65.8 µM | kcat [5]: 0.03 ± 0.00 s⁻¹ | kcat/Km [5]: 40 ± 0 M⁻¹ s⁻¹ | Km (N[C@@H](Cc1ccccc1)C(=O)O [6]): 6.0 ± 1.4 µM | kcat (N[C@@H](Cc1ccccc1)C(=O)O [6]): 0.17 ± 0.00 s⁻¹ | kcat/Km (N[C@@H](Cc1ccccc1)C(=O)O [6]): 29920 ± 6750 M⁻¹ s⁻¹

Brachypodium distachyon BdPTAL, wild type (Brachypodium distachyon)
Km (N[C@@H](Cc1ccccc1)C(=O)O [7]): 216.6 ± 10.3 µM | kcat (N[C@@H](Cc1ccccc1)C(=O)O [7]): 1.05 ± 0.05 s⁻¹ | kcat/Km (N[C@@H](Cc1ccccc1)C(=O)O [7]): 4840 ± 110 M⁻¹ s⁻¹

Arabidopsis thaliana AtPAL1, wild type, SEQ ID NO: 144 (Arabidopsis thaliana)
Km (N[C@@H](Cc1ccccc1)C(=O)O [3]): 52.2 ± 3.1 µM | kcat (N[C@@H](Cc1ccccc1)C(=O)O [3]): 1.42 ± 0.07 s⁻¹ | kcat/Km (N[C@@H](Cc1ccccc1)C(=O)O [3]): 27310 ± 850 M⁻¹ s⁻¹

Arabidopsis thaliana AtPAL1 variant S114I (as printed in Table 3; AtPAL1^S116I, SEQ ID NO: 260, elsewhere) (Arabidopsis thaliana; S116I)
Km [8]: 515.4 ± 54.3 µM | kcat [8]: 0.02 ± 0.00 s⁻¹ | kcat/Km [8]: 40 ± 0 M⁻¹ s⁻¹ | Km (N[C@@H](Cc1ccccc1)C(=O)O [3]): 10.1 ± 1.9 µM | kcat (N[C@@H](Cc1ccccc1)C(=O)O [3]): 0.23 ± 0.00 s⁻¹ | kcat/Km (N[C@@H](Cc1ccccc1)C(=O)O [3]): 23710 ± 4630 M⁻¹ s⁻¹

From patent publication US20240318160A1
